Laboratory results as given in doi:10.1101/716654 (bioRxiv, 2019).

Target: the molecule itself
Assay: native gel or EMSA

B1: hNav1.7^GFP (human voltage-gated sodium channel Nav1.7 fused to C-terminal GFP) (natural protein)
chain: not shown
- stoichiometry N: 2
